Source: US20210169980A1 (HONG KONG UNIVERSITY OF SCIENCE AND TECHNOLOGY, published 2021)
Like-named read-outs stand apart in the source and are kept apart here.

Experiments:
[1] = molecular target: LC3A R70E; assay: ITC
[2] = molecular target: T1, LC3A (human, UniProt Q9H492 1-121); assay: ITC
[3] = molecular target: GABARAP R67E; assay: ITC
[4] = molecular target: T2, LGG-2 (C. elegans, UniProt Q23536 1-130, limits assumed); assay: ITC (table of Kd values)
T2 construct: also called worm orthologue of LC3
T2 sequence (looked up): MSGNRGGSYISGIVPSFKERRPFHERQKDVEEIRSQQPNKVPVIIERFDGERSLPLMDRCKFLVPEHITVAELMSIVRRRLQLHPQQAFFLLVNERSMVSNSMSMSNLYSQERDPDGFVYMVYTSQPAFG

[5] = molecular target: T3, LC3B (human, UniProt Q9GZQ8 1-125); assay: ITC (table of Kd values)
[6] = molecular target: T4, LGG-1 (C. elegans, UniProt Q09490 1-123, limits assumed); assay: ITC (table of Kd values)
T4 construct: Purified protein in the ITC; also called worm orthologue of GABARAP
T4 sequence (Q09490 whole entry): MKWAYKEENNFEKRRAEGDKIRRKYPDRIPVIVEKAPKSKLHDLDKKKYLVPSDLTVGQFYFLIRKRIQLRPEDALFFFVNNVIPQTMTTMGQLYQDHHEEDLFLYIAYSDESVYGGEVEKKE

[7] = molecular target: T5, LC3C (human, UniProt Q9BXW4 1-126); assay: ITC
T5 sequence (Q9BXW4 1-126, form in doubt): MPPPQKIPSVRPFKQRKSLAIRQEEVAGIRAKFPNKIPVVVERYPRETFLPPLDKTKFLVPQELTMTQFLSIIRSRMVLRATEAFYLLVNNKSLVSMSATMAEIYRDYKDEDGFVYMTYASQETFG

[8] = molecular target: T3, LC3B; assay: ITC
[9] = molecular target: T1, LC3A; assay: ITC; remark: listed apart in the source
[10] = molecular target: T6, GABARAPL2 (human, UniProt P60520 1-117, limits assumed); assay: ITC
T6 construct: also called GATE-16
T6 sequence (P60520 whole entry): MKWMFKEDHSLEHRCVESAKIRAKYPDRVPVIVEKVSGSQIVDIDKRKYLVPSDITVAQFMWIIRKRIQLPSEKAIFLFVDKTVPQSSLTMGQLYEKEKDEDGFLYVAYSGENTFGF

[11] = molecular target: T7, GABARAP (human, UniProt O95166 1-117, limits assumed); assay: ITC
T7 construct: elsewhere only "mammalian"
T7 sequence (O95166 whole entry): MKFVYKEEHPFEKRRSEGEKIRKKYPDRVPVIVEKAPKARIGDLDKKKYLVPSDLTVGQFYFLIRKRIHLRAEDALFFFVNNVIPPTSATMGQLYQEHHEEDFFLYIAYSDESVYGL

[12] = molecular target: T7, GABARAP; assay: ITC; remark: listed apart in the source
[13] = molecular target: T7, GABARAP; assay: ITC; ratio of the binding to GABARAP against that to LC3A
[14] = molecular target: T2, LGG-2; assay: ITC
[15] = molecular target: T1, LC3A; assay: ITC; remark: listed apart in the source
[16] = molecular target: LC3A R70E; assay: ITC; remark: listed apart in the source
[17] = molecular target: T1, LC3A; assay: ITC; remark: listed apart in the source
[18] = molecular target: GABARAP R67E; assay: ITC; remark: listed apart in the source
[19] = molecular target: [..]1 (human, UniProt Q9H0R8 1-117); assay: competition-based ITC (asterisk; legend paragraph 51)
[..]1, sequence (Q9H0R8 whole entry): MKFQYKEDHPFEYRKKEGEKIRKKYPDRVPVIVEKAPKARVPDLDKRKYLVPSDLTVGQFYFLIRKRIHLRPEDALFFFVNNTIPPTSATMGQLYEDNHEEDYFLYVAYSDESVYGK

[20] = molecular target: T6, GABARAPL2; assay: as above
[21] = molecular target: T5, LC3C; assay: ITC; remark: listed apart in the source
[22] = molecular target: T3, LC3B; assay: ITC; remark: listed apart in the source
[23] = molecular target: T7, GABARAP; assay: ITC; remark: listed apart in the source
[24] = molecular target: T7, GABARAP; assay: ITC (table of Kd values)
[25] = molecular target: T4, LGG-1; assay: ITC
[26] = molecular target: T7, GABARAP; assay: ITC; without the C-helix extension (LIR-S, aa 448-461)

GABARAP R67E, sequence (chain, as listed by the source R67E R67E limits assumed): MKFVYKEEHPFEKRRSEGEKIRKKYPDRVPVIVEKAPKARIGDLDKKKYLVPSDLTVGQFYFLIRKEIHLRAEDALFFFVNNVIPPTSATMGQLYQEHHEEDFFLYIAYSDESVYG
LC3A R70E, sequence (chain, as listed by the source R70E R70E limits assumed): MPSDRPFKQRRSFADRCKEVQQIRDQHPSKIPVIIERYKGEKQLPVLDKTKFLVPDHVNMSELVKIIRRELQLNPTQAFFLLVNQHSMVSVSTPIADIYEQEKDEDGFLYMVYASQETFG

B1: AnkG LIR (AnkG WT peptide, rat 480 kD AnkG residues 1985-2010) (peptide)
peptide: PEDDWTEFSSEEIREARQAAASHAPS
- binding result [1]: no binding
- Kd [2]: 546 nM
- Kd [3]: 114 nM
- Kd [4]: 210 nM
- Kd [5]: 339 nM
- Kd [6]: 1.6 nM
- Kd [7]: 2930 nM
- Kd [8]: 339 nM
- Kd [9]: 546 nM
- Kd [10]: ~40 nM
- Kd [11]: ~2.6 nM

B2: A2000Q (peptide)
peptide: PEDDWTEFSSEEIREQRQAAASHAPS
notes: also called AnkG A2000Q
- Kd [12]: 741 nM
- Kd [2]: 8200 nM

B3: I1997Q (peptide)
peptide: PEDDWTEFSSEEQREARQAAASHAPS
notes: also called AnkG I1997Q
- Kd [12]: 68 nM
- Kd [2]: ~12500 nM

B4: E1996R (peptide)
peptide: PEDDWTEFSSERIREARQAAASHAPS
notes: also called AnkG E1996R
- Kd [12]: 398 nM
- Kd [2]: ~100000 nM

B5: AnkG E1991R (modified from rat 480 kD AnkG residues 1985-2010) (peptide)
peptide: PEDDWTRFSSEEIREARQAAASHAPS
notes: also called AnkG ER; Glu1991Arg AnkG LIR
- selectivity between GABARAP and LC3A [13]: ~1000 fold
- Kd [12]: 6.9 nM
- Kd [2]: 7190 nM
- Kd [4]: 8470 nM
- Kd [6]: 8.5 nM
- fold weaker binding against LGG-1 [14]: ~1000 fold
- fold lower affinity against AnkG LIR WT [15]: ~10 fold

B6: W1989R (peptide)
peptide: PEDDRTEFSSEEIREARQAAASHAPS
notes: Untagged peptide used in ITC; m22 is its mCherry fusion; also called AnkG W1989R; AnkG WR
- Kd [12]: ~12800 nM
- binding result [2]: no binding
- binding result [4]: no binding
- binding result [5]: no binding
- binding result [6]: no binding

B7: AnkB LIR (AnkB WT peptide, human 440 kD AnkB residues 1588-1614) (peptide)
peptide: VEEEWVIVSDEEIEEARQKAPLEITEY
- Kd [16]: 860 nM
- Kd [17]: 3.6 nM
- Kd [18]: 56 nM
- Kd [5]: 4.2 nM
- Kd [6]: 1.2 nM
- Kd [19]: 0.29 nM
- Kd [20]: 0.21 nM
- binding result [14]: binds
- Kd [21]: 10.5 nM
- Kd [22]: 4.2 nM

B8: E1599R (peptide)
peptide: VEEEWVIVSDERIEEARQKAPLEITEY
notes: also called AnkB E1599R
- Kd [23]: 38 nM
- Kd [17]: 312 nM

B9: AnkB W1592R (peptide)
peptide: VEEERVIVSDEEIEEARQKAPLEITEY
notes: also called AnkB WR; Trp1592Arg mutant of AnkB LIR
- Kd [23]: > 100000 nM
- Kd [17]: ~26600 nM
- Kd [24]: > 100000 nM
- binding result [14]: no binding
- binding result [25]: no binding

B10: AnkG LIR C-helix alone (aa 1993-2010) (peptide)
peptide: SSEEIREARQAAASHAPS
- binding result [2]: no binding
- binding result [11]: no binding

B11: human FAM134B LIR without the C-helix extension (LIR-S, aa 448-461) (peptide, UniProt Q9H6L5 448-461, looked up)
peptide: DTEEGDDFELLDQS
notes: range 448-461; also called FAM134B LIR-S
- Kd [26]: 704 nM

B12: AnkG LIR construct "1985-2000" (aa 2001-2010 truncated) (peptide)
peptide: PEDDWTEFSSEEIREA
- Kd [12]: 510 nM
- Kd [2]: 7410 nM
- fold decrease of binding against AnkG LIR (aa 1985-2010) [11]: ~200 fold
